As a reminder, the koff is the rate constant with which the complex falls apart. As a reminder, the kon is a measure of how fast the partners come together.

The target of the assay is biotinylated DAE10 peptide (Aβ1-10 conjugated to biotin at the carboxy-terminus). The assay is described as follows: SPR; BIAcore; biotinylated DAE10 peptide (Aβ1-10) immobilised on streptavidin coated chips at low density (4 to 7 RU); whole antibodies injected in triplicate at 100 nM, 30 μl/minute; apparent rate constants, bivalent model, KD corrected for active concentration of antibody. (In general: SPR reads the build-up and loss of mass on a sensor chip optically.)

Turning to “Recombinant chimeric 3D6 (IgG1) (antibody)”, the Kd came out at 1.8 nM, the koff turned out to be 0.000589 s⁻¹ and the kon worked out at 343000 M⁻¹ s⁻¹.
In the same order, the values of Murine 3D6 (whole antibody, IgG2b) are 1.2 nM, 0.000412 s⁻¹ and 361000 M⁻¹ s⁻¹.

The values above are taken from article PMC4095729.
